Each block holds one binder with its values, some of them ahead of it.
Columns and labels:
human CCR9 = molecular target: T1, human CCR9 (human, UniProt P51686 1-369); test: FACS, R1610-human CCR9 cells
T1 construct: whole, on cells; R1610 cells
T1 sequence (looked up): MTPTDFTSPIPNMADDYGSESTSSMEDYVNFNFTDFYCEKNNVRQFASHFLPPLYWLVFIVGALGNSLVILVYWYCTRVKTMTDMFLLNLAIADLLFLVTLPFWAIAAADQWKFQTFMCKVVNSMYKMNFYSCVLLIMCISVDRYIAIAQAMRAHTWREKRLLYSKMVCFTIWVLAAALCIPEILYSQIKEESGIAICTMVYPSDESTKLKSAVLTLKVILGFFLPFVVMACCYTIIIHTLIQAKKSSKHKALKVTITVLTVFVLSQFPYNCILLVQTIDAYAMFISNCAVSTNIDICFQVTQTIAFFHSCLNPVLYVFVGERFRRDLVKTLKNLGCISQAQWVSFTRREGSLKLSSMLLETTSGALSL
Description: In more details, the cell staining procedure was: […] cell suspension in 10 μl FACS buffer (1×PBS, 2.0% FBS, 0.2% sodium azide) was mixed with 10 μl of 200 nM the corresponding anti-CCR7 MAB and incubated on ice for 30 min. Washing step—after the incubation 150 μl of FACS buffer was added to the cell sample, the samples were mixed gently by up-down pipetting the cell suspension. Then the samples were centrifuged at 1100 rpm for 5 minutes, and supernatants were removed. Washing step was repeated ones. Then 10 μl of anti-human PE-(Fab)2 form Jackson Immuno Research Lab. #709-116-098 diluted 40 times in FACS buffer were added to the cells and the cells were re-suspended by up-down pipetting. After 20 min. incubation on ice in dark the washing step was repeated twice. The washed cells were mixed with 100 μl of FIX buffer (0.5% Paraformaldehyde solution in PBS). Fixed samples were stored in dark on ice and analyzed by FACS on Guava PCA-96 flow cytometer. The fluorescent signals collected from individual cells were obtained using fluorescence Activated Cell Sorter (FACS).

[1] = molecular target: T2, human chemokine receptor CCR7 (human, UniProt P32248 25-378); test: flow cytometry titration, BHK cells expressing human CCR7
T2 construct: On CHO, BHK, R1610 and Chem-1 transfectants and, natively, on human PBMC and the leukemia lines JVM-13 and CLL-AAT; also called human CCR7; hCCR7
T2 sequence: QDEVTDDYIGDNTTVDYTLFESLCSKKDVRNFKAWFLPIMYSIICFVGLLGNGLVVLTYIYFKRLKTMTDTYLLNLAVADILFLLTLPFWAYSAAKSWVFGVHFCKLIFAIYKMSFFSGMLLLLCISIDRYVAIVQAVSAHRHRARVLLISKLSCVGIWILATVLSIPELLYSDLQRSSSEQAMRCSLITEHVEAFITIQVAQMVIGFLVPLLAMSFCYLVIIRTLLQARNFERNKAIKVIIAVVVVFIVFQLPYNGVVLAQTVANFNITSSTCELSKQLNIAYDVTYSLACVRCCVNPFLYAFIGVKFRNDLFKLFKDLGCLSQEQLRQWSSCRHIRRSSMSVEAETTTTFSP
Description: (§1) The affinity of IgG1 antibodies to human CCR7 was evaluated by measuring mean fluorescence value (MFI) of cells expressing CCR7 in the presence of varying concentration of antibody in question, upon staining of bound to the cells antibodies with a commercial anti-human antibody-PE conjugate. The data of such experiments are depicted in FIGS. 9, 10, and 11. In these experiments binding of some antibodies to parental cells or cells expressing mouse CCR7 was also quantitatively characterized by obtaining EC₅₀ value (a concentration of IgG1 at which half-maximum MFI is achieved) for each curve using the SoftMaxPro5 program.

[2] = molecular target: T2, human chemokine receptor CCR7; test: flow cytometry titration, CCR7-expressing CHO cells; antibody kept 12 h at 40 C
[3] = molecular target: T2, human chemokine receptor CCR7; test: cell-based or functional assay
[4] = molecular target: T2, human chemokine receptor CCR7; test: flow cytometry titration, cells expressing CCR7; before storage (unit from the axis, nM)
[5] = molecular target: T2, human chemokine receptor CCR7; test: flow cytometry titration, human CCR7-expressing CHO cells
[6] = molecular target: T2, human chemokine receptor CCR7; test: flow cytometry titration, CCR7-expressing CHO cells; antibody not heat-treated
mouse CCR7 [7] = molecular target: T3, mouse CCR7 (mouse, UniProt P47774 25-378); test: flow cytometry, mouse CCR7 cells (summary table)
T3 construct: whole, on cells; On CHO-mouse CCR7 cells and on mouse splenocytes; also called mouse CCR7 ortholog
T3 sequence (looked up): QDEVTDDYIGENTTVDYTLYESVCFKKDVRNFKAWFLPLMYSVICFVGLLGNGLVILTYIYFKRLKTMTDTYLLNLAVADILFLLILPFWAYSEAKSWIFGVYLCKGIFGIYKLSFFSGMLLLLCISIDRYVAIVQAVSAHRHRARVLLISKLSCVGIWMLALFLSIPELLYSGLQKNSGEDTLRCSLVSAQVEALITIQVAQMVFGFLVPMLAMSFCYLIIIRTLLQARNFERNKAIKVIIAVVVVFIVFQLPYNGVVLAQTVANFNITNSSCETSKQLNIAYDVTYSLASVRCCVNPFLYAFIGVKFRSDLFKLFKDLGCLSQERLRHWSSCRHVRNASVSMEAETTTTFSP

mouse CCR7 [8] = molecular target: T3, mouse CCR7; test: flow cytometry titration, CHO-mouse CCR7 cells
Description: as §1

mouse CCR7 [9] = molecular target: T3, mouse CCR7; test: flow cytometry titration, CHO cells expressing mouse CCR7
[10] = molecular target: T2, human chemokine receptor CCR7; test: flow cytometry titration, CHO-human CCR7 cells
Description: as §1

[11] = molecular target: T2, human chemokine receptor CCR7; test: flow cytometry, human CCR7 cells (summary table)
[12] = molecular target: T2, human chemokine receptor CCR7; test: flow cytometry titration, cells expressing CCR7; after 4.5 months at 4 C (unit from the axis, nM)

EC50 [1]: 3.8 nM
B1: MSM-R710 (fully human anti-human CCR7 antibody, IgG1) (antibody, V domains shown)
VH: EVQLLESGGGLVQPGGSLRLSCAASGFTFSNYTMHWVRQAPGKGLEWVSGIGPRSGRTYYADSVKGRFTISRDNSKNTLYLQMNSLRAEDTAVYYCARSYAYQYRGFDYWGQGTLVTVSS
VL: EIVLTQSPGTLSLSPGERATLSCRASQSVSSSYLAWYQQKPGQAPRLLIYGASSRATGIPDRFSGSGSGTDFTLTISRLEPEDFAVYYCQSSVTFGQGTKVEIKR
notes: IgG1 format
binding result (human CCR9): no binding (tested: 200 nM MAB mixed 1:1 with cells)

EC50 [2]: 3.1 nM
IC50 of inhibition of Ca-flux induced by 15 nM CCL19, Chem-1 CCR7 human cells [3]: 67 nM
EC50 [4]: 2.47 nM
EC50 [5]: 3.7 nM
EC50 [6]: 3 nM
EC50 (mouse CCR7 [7]): 1 nM
EC50 (mouse CCR7 [8]): ~642 nM
EC50 (mouse CCR7 [9]): 2.4 nM
EC50 [10]: 0.7 nM
EC50 [11]: 4 nM
EC50 [12]: 2.06 nM
B2: MSM-R735 (fully human anti-human CCR7 antibody, IgG1) (antibody)
heavy: not shown
light: EIVLTQSPGTLSLSPGERATLSCRASQSVSSSYLAWYQQKPGQAPRLLIYGASSRATGIPDRFSGSGSGTDFTLTISRLEPEDFAVYYCQQGSPVTFGQGTKVEIKRTVAAPSVFIFPPSDEQLKSGTASVVCLLNNFYPREAKVQWKVDNALQSGNSQESVTEQDSKDSTYSLSSTLTLSKADYEKHKVYACEVTHQGLSSPVTKSFNRGEC
notes: IgG1 format; also called R735 Human IgG1
EC50 of killing of JVM-13 cells with Fab-ZAP [3]: 19 nM
IC50 of decrease in cell viability with human Fab-ZAP, JVM-13 cells [3]: ~1.2 nM
binding result (human CCR9): no binding (tested: 200 nM MAB mixed 1:1 with cells)

— patent US20150344580A1 (MSM PROTEIN TECHNOLOGIES, published 2015)
